According to patent publication US11267842B2, “Enzymatic modification of nucleic acids” (The Regents of the University of California, priority 2015, dated 2022):

Substrate: CN1/C(=C/c2cc[n+](CCCCCC(=O)NCCOCCOCCOCCNCc3c[nH]c4nc(N)[nH]c(=O)c34)c3ccccc23)Sc2ccccc21
Assay: Estimation of PreQ1-TO substrate kinetics with ECY-A1 catalyzed by TGT
Assay type: biochemical, E. coli
Conditions: other: estimated from initial rates by fluorescence, 10 μM ECY-A1, 100 nM TGT, 37° C.
Experimental: Estimation of PreQ1-TO substrate kinetics with ECY-A1. An estimation of PreQ1-TO substrate kinetics with ECY-A 1 was performed under similar concentrations and conditions to that found from previous kinetic analyses using radiolabeled substrates.^2 A triplicate set of 20 μL reactions was analyzed using a Tecan Saphire-II plate reader in a Greiner 384 well flat bottom plate (VWR, CAT# 89089−584). Each well was prepped with 10 μM ECY-A 1 and a variable amount (from 100 μM to 10 nM in serial ⅓ dilutions) of PreQ1-TO in TGT reaction buffer. The plate was covered and allowed to warm up to 37° C. for 10 minutes. […] Each well was then covered with 10 μL of light mineral oil (to prevent evaporation of water) and the plate was immediately subjected to a fluorescence reading for the first kinetic time point at 37° C. Each well was monitored with an excitation of 501 nm and emission of 531. […] The gain was held fixed and the integration time set to 1 second with 10 reads averaged to each data point collected. The sample was monitored for 30 minutes at 37° C. with a reading taken every 2 minutes. The data was worked up using an ECY-A1-PreQ1-TO calibration curve to convert fluorescence into concentration of product in each sample for each time point to achieve an estimation of the initial rate of each reaction in M^−1/s^−1. […] This curve was analyzed with Graph Pad Prism v. […]

B1: bacterial (E.coli) tRNA guanine transglycosylase (TGT) (Escherichia coli K-12) (protein)
chain: MKFELDTTDGRARRGRLVFDRGVVETPCFMPVGTYGTVKGMTPEEVEATGAQIILGNTFHLWLRPGQEIMKLHGDLHDFMQWKGPILTDSGGFQVFSLGDIRKITEQGVHFRNPINGDPIFLDPEKSMEIQYDLGSDIVMIFDECTPYPADWDYAKRSMEMSLRWAKRSRERFDSLGNKNALFGIIQGSVYEDLRDISVKGLVDIGFDGYAVGGLAVGEPKADMHRILEHVCPQIPADKPRYLMGVGKPEDLVEGVRRGIDMFDCVMPTRNARNGHLFVTDGVVKIRNAKYKSDTGPLDPECDCYTCRNYSRAYLHHLDRCNEILGARLNTIHNLRYYQRLMAGLRKAIEEGKLESFVTDFYQRQGREVPPLNVDHHHHHH
notes: His6 (C); made in house; host or cells: E. coli BL21
Protein B1 has a Km of 9.8 µM and a kcat of 0.0016 s⁻¹.
